{"source": "patent US20060134087A1", "about": "“ITI-D1 Kunitz domain mutants as hNE inhibitors” (Dyax Corp., priority 1988, published 2006)", "key": {"hNE [1]": {"molecular_target": "T1, hNE (Homo sapiens, UniProt P08246)", "T1 sequence (P08246 30-267)": "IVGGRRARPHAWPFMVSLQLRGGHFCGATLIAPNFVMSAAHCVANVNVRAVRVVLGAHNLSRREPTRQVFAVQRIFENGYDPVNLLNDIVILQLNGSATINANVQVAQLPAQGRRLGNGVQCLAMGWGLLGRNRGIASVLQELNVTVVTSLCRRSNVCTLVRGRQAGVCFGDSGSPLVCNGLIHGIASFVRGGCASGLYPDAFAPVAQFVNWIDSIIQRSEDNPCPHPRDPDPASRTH", "assay": "pH stability, residual hNE inhibitory activity", "type": "physicochemical", "details": "37° C., 18 hours; for Percent Residual hNE Inhibitory Activity: 1 μM protein", "description": "The stability of the proteins to exposure to pH conditions in the range of pH 1 to pH 10 was assessed by maintaining the inhibitors in buffers of defined pH at 37° C. for 18 hours and determining the residual hNE inhibitory activity in the standard hNE-inhibition assay. Proteins were incubated at a concentration of 1 μM. The buffers shown in Table 4 were formulated as described (STOL90) and used in the pH ranges indicated: […]\nProteins were incubated at 37° C. for 18 hours in buffers of defined pH (see text). In all cases protein concentrations were 1 μM. At the end of the incubation period, aliquots of the reactions were diluted and residual hNE-inhibition activity determined."}, "hNE [2]": {"molecular_target": "T1, hNE", "assay": "Resistance to oxidative inactivation by Chloramine-T, residual hNE-inhibition activity", "type": "physicochemical", "details": "20 minutes at RT", "description": "At the end of the incubation period, the oxidation reactions were quenched by adding methionine to a final concentration of 4 mM. After a further 10 minute incubation, the quenched reactions were diluted and assayed for residual inhibitor activity in our standard hNE-inhibition assay.\nInhibitors were incubated in the presence of Chloramine-T at the molar ratios indicated for 20 minutes at RT. Oxidation reactions were quenched by adding methionine to a final concentration of 4 mM. Residual hNE-inhibition activity remaining in the quenched reactions is shown as a percentage of the activity observed with no added oxidant."}, "hNE [3]": {"molecular_target": "T1, hNE", "assay": "Kinetic on-rate of inhibitors reacting with hNE (progressive inhibition)", "type": "biochemical", "description": "The kinetic on-rates for the inhibitors reacting with hNE (kon) were determined from measurements of progressive inhibition of substrate hydrolytic activity by hNE following addition of inhibitor. For these experiments, a known concentration of inhibitor was added to a solution of hNE (0.847 nM) and substrate (25 μM) in 2 ml of reaction buffer in a plastic fluorescence cuvette. The change in fluorescence was recorded continuously following addition of the inhibitor. […] The enzymatic rate at selected times following addition of the inhibitor was determined from the slope of the tangent to the fluorescence time course at that time.\nThe kinetic constant kon for EPI-HNE-2 reacting with hNE was determined as follows. EPI-HNE-2 at 1.3 nM was added to buffer containing 0.867 nM hNE (I:E=1.5:1) at time 0. Measured percent residual activity was recorded as a function of time after addition of inhibitor. A least-squares fit program was used to obtain the value of kon=4.0×10^6 M^−1s^−1.\nThe kinetic off rate, koff, is calculated from the measured values of Ki and kon as: […] The values from such measurements are included in Table 30. The EPI-HNE proteins are small, high affinity, fast acting inhibitors of hNE. B. Specificity."}, "hNE [4]": {"molecular_target": "T1, hNE", "assay": "Temperature stability, residual inhibitory activity for hNE", "type": "physicochemical", "details": "for Residual hNE Inhibitory Activity: 18 hours, pH 7.0, 1 μM protein", "description": "The stability of EPI-HNE proteins to temperatures in the range 0° C. to 95° C. was assessed by incubating the inhibitors for thirty minutes at various temperatures and determining residual inhibitory activity for hNE. In these experiments, protein concentrations were 1 μM in phosphate buffer at pH=7. As is shown in Table 40, the four inhibitors are quite temperature stable.\nProteins were incubated at the stated temperature for 18 hours in buffer at pH 7.0. In all cases protein concentrations were 1 μM. At the end of the incubation period, aliquots of the reactions were diluted and residual hNE-inhibition activity determined."}, "[5]": {"molecular_target": "T2, agarose-immobilized hNE beads (Homo sapiens, UniProt P08246)", "T2 sequence (P08246 30-267)": "T1 sequence (P08246 30-267)", "assay": "pH fractionation of display phage on agarose-immobilized hNE beads", "type": "binding", "parameters": "Fraction of Input recovered at pH7.0: scale not given here", "source_text": "For the purpose of simultaneously assessing the affinity of a large number of different BPTI and ITI-D1 muteins, DNA sequences encoding the BPTI or ITI-D1 was incorporated into the genome of the bacteriophage M13. […] Alterations in the KuDom amino acid sequence were introduced. Each pure population of phage displaying a particular KuDom was characterized with regard to its interactions with immobilized hNE or hCG. Based on comparison to the pH elution profiles of phage displaying other KuDoms of known affinities for the particular protease, mutant KuDoms having high affinity for the target proteases were identified. Subsequently, the sequences of these mutant KuDoms were determined (typically by sequencing the corresponding DNA sequence).\nTo test if phage displaying the ITI-D1::III fusion protein interact strongly with the proteases human neutrophil elastase (hNE), aliquots of display phage were incubated with agarose-immobilized hNE beads (“hNE beads”). The beads were washed and bound phage eluted by pH fractionation as described in U.S. Pat. No. 5,223,409. The pHs used in the step gradient were 7.0, 6.0, 5.5, 5.0, 4.5, 4.0, 3.5, 3.0, 2.5, and 2.0. Following elution and neutralization, the various input, wash, and pH elution fractions were titered. Phage displaying ITI-D1 were compared to phage that display EpiNE-7.\nTo test if ITI-D1E7-display phage bind hNE beads, pH elution profiles were measured. Aliquots of EpiNE-7, MA-ITI-D1, and MA-ITI-D1E7 display phage were incubated with hNE beads for three hours at room temperature (RT). The beads were washed and phage were eluted as described in U.S. Pat. No. 5,223,409, except that only three pH elutions were performed. […] The pH elution profile of EpiNE-7 display phage is as described. MA-ITI-D1E7 phage show a broad elution maximum around pH 5. The total fraction of MA-ITI-D1E7 phage obtained on pH elution from hNE beads was about 40-fold less than that obtained using EpiNE-7 display phage.\nWe characterized the binding properties to hNE-beads of MA-BITI and MA-BITI-E7 display phage using the extended pH fractionation procedure described in U.S. Pat. No. 5,223,409.\nThe binding capacity of hNE-beads for display phage varies among preparations of beads and with age for each individual preparation of beads. Thus, it is difficult to directly compare absolute yields of phage from elutions performed at different times. For example, the fraction of MA-EpiNE7 display phage recovered from hNE-beads varies two-fold among the experiments shown in Tables 14, 16, and 17. However, the shapes of the pH elution profiles are similar. It is possible to correct somewhat for variations in binding capacity of hNE-beads by normalizing display phage yields to the total yield of MA-EpiNE7 phage recovered from the beads in a concurrent elution. When the data shown in Tables 14, 16, and 17 are so normalized, the recoveries of display phage, relative to recovered MA-EpiNE7, are shown in Table 3.\nITI-D1 derivative BITI-E7-1222 is BITI-E7 with the alteration A11T. ITI-D1 derivative BITI-E7-141 is BITI-E7 with the alterations E31Q and Q34V; phage that display the presence of these proteins are MA-BITI-E7-1222 and MA-BITI-E7-141. We determined the binding properties to hNE-beads of MA-BITI-E7-1222 and MA-BITI-E7-141 display phage using the extended pH fractionation protocol described previously. The results are in Tables 18 (for MA-BITI-E7 and MA-BITI-E7-1222) and 19 (for MA-EpiNE7 and MA-BITI-E7-141). The pH elution profiles for the MA-BITI-E7 and MA-BITI-E7-1222 phage are almost identical.\nTotal pfu applied to the beads are in column two. The fractions of this input pfu recovered in each pH fraction of the abbreviated pH elution protocol (pH 7.0, pH 3.5, and pH 2.0) are in the next three columns. […]"}}}
{"substance": "EPI-HNE-1: BPTI-derived Kunitz domain, SEQ ID NO 007; K15I, R17F, I18F, I19P, R39M, A40G, K41N, R42G", "values": [{"measurement": "pH stability", "setting": "hNE [1]; pH 1 to pH 10, 1 μM", "value": "stable at all pH values tested"}, {"measurement": "Percent Residual hNE Inhibitory Activity", "setting": "hNE [1]; Incubation pH 1.0", "value": 102, "unit": "%"}, {"measurement": "Percent Residual hNE Inhibitory Activity", "setting": "hNE [1]; Incubation pH 2.0", "value": 100, "unit": "%"}, {"measurement": "Percent Residual hNE Inhibitory Activity", "setting": "hNE [1]; Incubation pH 2.6", "value": 101, "unit": "%"}, {"measurement": "Percent Residual hNE Inhibitory Activity", "setting": "hNE [1]; Incubation pH 3.0", "value": 100, "unit": "%"}, {"measurement": "Percent Residual hNE Inhibitory Activity", "setting": "hNE [1]; Incubation pH 4.0", "value": 98, "unit": "%"}, {"measurement": "Percent Residual hNE Inhibitory Activity", "setting": "hNE [1]; Incubation pH 5.0", "value": 100, "unit": "%"}, {"measurement": "Percent Residual hNE Inhibitory Activity", "setting": "hNE [1]; Incubation pH 6.0", "value": 100, "unit": "%"}, {"measurement": "Percent Residual hNE Inhibitory Activity", "setting": "hNE [1]; Incubation pH 7.0", "value": 93, "unit": "%"}, {"measurement": "Percent Residual hNE Inhibitory Activity", "setting": "hNE [1]; Incubation pH 8.0", "value": 96, "unit": "%"}, {"measurement": "Percent Residual hNE Inhibitory Activity", "setting": "hNE [1]; Incubation pH 9.4", "value": 100, "unit": "%"}, {"measurement": "Percent Residual hNE Inhibitory Activity", "setting": "hNE [1]; Incubation pH 10.0", "value": 98, "unit": "%"}, {"measurement": "Percent Residual hNE-Inhibitory Activity", "setting": "hNE [2]; Molar Ratio CHL-T:Inhibitor 0", "value": 100, "unit": "%"}, {"measurement": "Percent Residual hNE-Inhibitory Activity", "setting": "hNE [2]; Molar Ratio CHL-T:Inhibitor 1.4", "value": 98, "unit": "%"}, {"measurement": "Percent Residual hNE-Inhibitory Activity", "setting": "hNE [2]; Molar Ratio CHL-T:Inhibitor 1.9", "value": 102, "unit": "%"}, {"measurement": "Percent Residual hNE-Inhibitory Activity", "setting": "hNE [2]; Molar Ratio CHL-T:Inhibitor 3.8", "value": 94, "unit": "%"}, {"measurement": "Percent Residual hNE-Inhibitory Activity", "setting": "hNE [2]; Molar Ratio CHL-T:Inhibitor 9.5", "value": 95, "unit": "%"}, {"measurement": "Percent Residual hNE-Inhibitory Activity", "setting": "hNE [2]; Molar Ratio CHL-T:Inhibitor 19.", "value": 92, "unit": "%"}, {"measurement": "Percent Residual hNE-Inhibitory Activity", "setting": "hNE [2]; Molar Ratio CHL-T:Inhibitor .48", "value": 102, "unit": "%"}, {"measurement": "Percent Residual hNE-Inhibitory Activity", "setting": "hNE [2]; Molar Ratio CHL-T:Inhibitor .95", "value": 100, "unit": "%"}, {"measurement": "kon", "setting": "hNE [3]; [hNE] = 8.47 × 10^−10 molar", "value": "3.7 10^6/M/s"}, {"measurement": "koff", "setting": "hNE [3]; calculated from koff = KD × kon", "value": "7.4 10^−6/s"}, {"measurement": "Residual hNE Inhibitory Activity", "setting": "hNE [4]; Temperature 0 ° C.", "value": 97}, {"measurement": "Residual hNE Inhibitory Activity", "setting": "hNE [4]; Temperature 23 ° C.", "value": 100}, {"measurement": "Residual hNE Inhibitory Activity", "setting": "hNE [4]; Temperature 37 ° C.", "value": 100}, {"measurement": "Residual hNE Inhibitory Activity", "setting": "hNE [4]; Temperature 45 ° C.", "value": 103}, {"measurement": "Residual hNE Inhibitory Activity", "setting": "hNE [4]; Temperature 55 ° C.", "value": 99}, {"measurement": "Residual hNE Inhibitory Activity", "setting": "hNE [4]; Temperature 65 ° C.", "value": 94}, {"measurement": "Residual hNE Inhibitory Activity", "setting": "hNE [4]; Temperature 75 ° C.", "value": 100}, {"measurement": "Residual hNE Inhibitory Activity", "setting": "hNE [4]; Temperature 85 ° C.", "value": 106}, {"measurement": "Residual hNE Inhibitory Activity", "setting": "hNE [4]; Temperature 95 ° C.", "value": 64}, {"measurement": "temperature below which full inhibitory activity is maintained", "setting": "hNE [4]; thirty minutes, 1 μM, phosphate buffer pH=7", "value": "below 90 °C"}]}
{"substance": "MUTT26A: BITI-E7-141 with T26A; SEQ ID NO 018 (RPDFCQLGYSAGPCVAMFPRYFYNGASMACQTFVYGGCMGNGNNFVTEKDCLQTCRGA; MUTT26A)", "values": [{"measurement": "Fraction of Input recovered at pH7.0", "setting": "[5]; EE extended pH elution protocol", "value": 2.5}, {"measurement": "Fraction of Input recovered at pH2.0", "setting": "[5]; EE, sum of pH 3.0, 2.5, 2.0 samples", "value": "3.3 ×10^−4"}, {"measurement": "Fraction of Input recovered at pH3.5", "setting": "[5]; EE, sum of pH 6.0 to pH 3.5 samples", "value": "19.0 ×10^−4"}, {"measurement": "Recovery Total", "setting": "[5]; EE, total fraction of input", "value": "25.0 ×10^−4"}, {"measurement": "Fraction of Input bound", "setting": "[5]; range of the affinity class", "value": ">0.1", "unit": "%"}, {"measurement": "pH Elution Maximum", "setting": "[5]; range of the affinity class", "value": "≦4.0 pH"}, {"measurement": "effect of change on binding of display phage to hNE-beads", "setting": "[5]; relative to parental MA-BITI-E7-141", "value": "little effect"}]}
